From publication doi:10.1101/2025.06.27.661946 (bioRxiv, 2025)
Each block holds one molecule with its values, some of them ahead of it.

Tests used:
ATG101 (human) [1] = biological target: ATG101 (human) (UniProt Q9BSB4); assay: cross-linking
ATG101 (human) [2] = biological target: ATG101 (human) (UniProt Q9BSB4); assay: mass photometry
[3] = biological target: ATG101 co-expressed with ULK1 (human) (UniProt Q9BSB4); assay: mass photometry
His-ATG101 (human) = His-ATG101 (human) (UniProt Q9BSB4); assay: mass photometry
[4] = biological target: phospho-mimetic ATG101 mutants S11D and S203D (human) (UniProt Q9BSB4); assay: mass photometry
[5] = biological target: phosphorylated ATG101 (His-ATG101 phosphorylated in vitro by ULK1) (human) (UniProt Q9BSB4); assay: mass photometry
[6] = biological target: phosphorylated ATG101 purified from insect cells treated with Okadaic Acid (human) (UniProt Q9BSB4); assay: mass photometry
[7] = biological target: ATG13-ATG101^Alexa488 (pre-formed complex) (UniProt Q9BSB4); assay: fluorescence polarisation
^MBPATG13 full-length = biological target: T1, ^MBPATG13 full-length (UniProt O75143 1-517); assay: fluorescence polarisation
T1 sequence: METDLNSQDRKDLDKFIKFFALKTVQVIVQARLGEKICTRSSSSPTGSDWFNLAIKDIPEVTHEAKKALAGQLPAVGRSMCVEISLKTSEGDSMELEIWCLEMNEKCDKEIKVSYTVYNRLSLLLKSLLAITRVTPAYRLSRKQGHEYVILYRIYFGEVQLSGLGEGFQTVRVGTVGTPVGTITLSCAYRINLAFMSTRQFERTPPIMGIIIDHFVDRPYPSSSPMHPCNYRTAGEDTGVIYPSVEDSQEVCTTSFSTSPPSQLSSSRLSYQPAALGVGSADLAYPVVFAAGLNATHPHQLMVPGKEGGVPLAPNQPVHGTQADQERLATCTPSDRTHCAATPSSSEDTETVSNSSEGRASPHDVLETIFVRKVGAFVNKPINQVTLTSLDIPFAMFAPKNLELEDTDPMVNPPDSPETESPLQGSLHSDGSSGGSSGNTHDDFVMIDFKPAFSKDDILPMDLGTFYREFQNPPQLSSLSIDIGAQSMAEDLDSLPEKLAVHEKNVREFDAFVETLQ

- stoichiometry N (ATG101 (human) [1]): 2
- stoichiometry N (ATG101 (human) [2]): 2
Molecule: ATG101 (from UniProt Q9BSB4 1-218) (natural protein)

- stoichiometry N [3]: 2
Molecule: ATG101 co-expressed with ULK1 (from UniProt Q9BSB4 1-218) (natural protein)

- stoichiometry N (His-ATG101 (human)): 2
Molecule: His-ATG101 (from UniProt Q9BSB4 1-218) (natural protein)

- stoichiometry N [4]: 2
Molecule: phospho-mimetic ATG101 mutants S11D and S203D (from UniProt Q9BSB4 1-218) (natural protein)

- Kd [5]: 0.1 to 0.25 µM
- stoichiometry N [5]: 2
Molecule: phosphorylated ATG101 (His-ATG101 phosphorylated in vitro by ULK1) (from UniProt Q9BSB4 1-218) (natural protein)

- stoichiometry N [6]: 2
Molecule: phosphorylated ATG101 purified from insect cells treated with Okadaic Acid (from UniProt Q9BSB4 1-218) (natural protein)

- kon [7]: 15000 M⁻¹ s⁻¹
B1: ^MBPATG9A (natural protein)
chain: MAQFDTEYQRLEASYSDSPPGEEDLLVHVAEGSKSPWHHIENLDLFFSRVYNLHQKNGFTCMLIGEIFELMQFLFVVAFTTFLVSCVDYDILFANKMVNHSLHPTEPVKVTLPDAFLPAQVCSARIQENGSLITILVIAGVFWIHRLIKFIYNICCYWEIHSFYLHALRIPMSALPYCTWQEVQARIVQTQKEHQICIHKRELTELDIYHRILRFQNYMVALVNKSLLPLRFRLPGLGEAVFFTRGLKYNFELILFWGPGSLFLNEWSLKAEYKRGGQRLELAQRLSNRILWIGIANFLLCPLILIWQILYAFFSYAEVLKREPGALGARCWSLYGRCYLRHFNELEHELQSRLNRGYKPASKYMNCFLSPLLTLLAKNGAFFAGSILAVLIALTIYDEDVLAVEHVLTTVTLLGVTVTVCRSFIPDQHMVFCPEQLLRVILAHIHYMPDHWQGNAHRSQTRDEFAQLFQYKAVFILEELLSPIVTPLILIFCLRPRALEIIDFFRNFTVEVVGVGDTCSFAQMDVRQHGHPQWLSAGQTEASVYQQAEDGKTELSLMHFAITNPGWQPPRESTAFLGFLKEQVQRDGAAASLAQGGLLPENALFTSIQSLQSESEPLSLIANVVAGSSCRGPPLPRDLQGSRHRAEVASALRSFSPLQPGQAPTGRAHSTMTGSGVDARTASSGSSVWEGQLQSLVLSEYASTEMSLHALYMHQLHKQQAQAEPERHVWHRRESDESGESAPDEGGEGARAPQSIPRSASYPCAAPRPGAPETTALHGGFQRRYGGITDPGTVPRVPSHFSRLPLGGWAEDGQSASRHPEPVPEEGSEDELPPQVHKV

- kon (^MBPATG13 full-length): 14.7 M⁻¹ s⁻¹
B2: phosphorylated ATG101^Alexa488 (natural protein)
chain: MNCRSEVLEVSVEGRQVEEAMLAVLHTVLLHRSTGKFHYKKEGTYSIGTVGTQDVDCDFIDFTYVRVSSEELDRALRKVVGEFKDALRNSGGDGLGQMSLEFYQKKKSRWPFSDECIPWEVWTVKVHVVALATEQERQICREKVGEKLCEKIINIVEVMNRHEYLPKMPTQSEVDNVFDTGLRDVQPYLYKISFQITDALGTSVTTTMRRLIKDTLAL

- kon (^MBPATG13 full-length): 14.7 M⁻¹ s⁻¹
B3: ATG101^Alexa488 (natural protein)
chain: MNCRSEVLEVSVEGRQVEEAMLAVLHTVLLHRSTGKFHYKKEGTYSIGTVGTQDVDCDFIDFTYVRVSSEELDRALRKVVGEFKDALRNSGGDGLGQMSLEFYQKKKSRWPFSDECIPWEVWTVKVHVVALATEQERQICREKVGEKLCEKIINIVEVMNRHEYLPKMPTQSEVDNVFDTGLRDVQPYLYKISFQITDALGTSVTTTMRRLIKDTLAL
